The values below come from patent US20250051473A1 (IGM BIOSCIENCES, published 2025).

In general, EC50 (read off the curve) refers to the concentration at which the effect is half-maximal.

Residue numbers refer to the chain shown, from its start.

The target in assay [1] is T1, recombinant human CD38 extracellular domain protein (ACROBiosystems, Cat #CD8-H5224) (human, UniProt P28907 43-300).
T1 construct: Bought protein; also called recombinant human CD38 protein
In words: ELISA, plate coated with recombinant human CD38 extracellular domain, HRP anti-human kappa detection, chemiluminescence (RLU). A general note: ELISA stands for enzyme-linked immunosorbent assay.

Assay [2] has as its target T2, recombinant cynomolgus monkey CD38 extracellular domain protein (ACROBiosystems) (cynomolgus monkey, UniProt Q5VAN0 44-301).
T2 construct: Bought extracellular domain protein; also called cyno CD38; recombinant cyno CD38
In words: ELISA, plate coated with recombinant cynomolgus CD38 extracellular domain, HRP anti-human kappa detection, chemiluminescence (RLU).

Assay [3] concerns the target cell surface human CD38 on NCI-H929 myeloma cells (human, UniProt P28907 1-300). Put plainly: flow cytometry on NCI-H929 cells, AF488 anti-human kappa secondary antibody, median FL-1.
Assay [4] addresses T3, human CD157 protein (SinoBiological, 10060-H08H) (human, UniProt Q10588 33-292).
T3 construct: Bought recombinant protein, coated on the ELISA plate
T3 sequence (looked up): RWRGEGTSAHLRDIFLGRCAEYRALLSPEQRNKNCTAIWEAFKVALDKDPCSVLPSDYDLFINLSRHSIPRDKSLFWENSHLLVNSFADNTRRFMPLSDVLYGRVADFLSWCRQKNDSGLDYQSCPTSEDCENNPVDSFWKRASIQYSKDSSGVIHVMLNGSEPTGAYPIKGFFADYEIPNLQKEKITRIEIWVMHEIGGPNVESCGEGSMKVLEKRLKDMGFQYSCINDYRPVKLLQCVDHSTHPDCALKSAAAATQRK
Put plainly: ELISA, antigen coated at 1 µg/mL, serial dilutions of IgM.

In assay [5] the target is T4, mouse CD38 (ACROBiosystems, CD8-M5223) (mouse, UniProt P56528 45-304).
T4 construct: Bought recombinant protein, coated on the ELISA plate
T4 sequence (looked up): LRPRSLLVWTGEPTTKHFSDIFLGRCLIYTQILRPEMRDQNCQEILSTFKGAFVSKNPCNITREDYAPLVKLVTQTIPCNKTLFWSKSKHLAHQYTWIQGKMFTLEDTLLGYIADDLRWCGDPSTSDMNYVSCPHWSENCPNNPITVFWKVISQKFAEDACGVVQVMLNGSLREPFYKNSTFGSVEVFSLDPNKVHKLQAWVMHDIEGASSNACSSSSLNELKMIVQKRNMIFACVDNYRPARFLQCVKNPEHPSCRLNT
The description is as above.

The target in assay [6] is T1, recombinant human CD38 extracellular …. In words: ELISA, plate coated with 1 ug/mL recombinant human CD38, HRP anti-human kappa detection, chemiluminescence (RLU).
Assay [7] shares this target. Put plainly: ELISA screen of hybridoma supernatants on recombinant CD38.
Assay [8] addresses T2, recombinant cynomolgus monkey CD38 …. The assay is described as above.

B1: IgM B-1 (bispecific antibody)
VH: QAYLQQSGAEVVRSGASVKMSCKAAGYTFTSYNMHWVKQTPGQGLEWIGYIYPGNGGTNYNQKFKGKATLTADTSSTTAYMQISSLTSEDSAVYFCARGASMITTGAWFAYWGQGTLVTVSA
VL: NIVLTQSPASLAVSLGQRATISCRASESLDTYGNSFMYWYQQKPGQPPKLLIYLASSLESGVPARFSGSGSRTDFTLTIDPVEADDAATYYCHQNHEDPWTFGGGTKLEIK
chain: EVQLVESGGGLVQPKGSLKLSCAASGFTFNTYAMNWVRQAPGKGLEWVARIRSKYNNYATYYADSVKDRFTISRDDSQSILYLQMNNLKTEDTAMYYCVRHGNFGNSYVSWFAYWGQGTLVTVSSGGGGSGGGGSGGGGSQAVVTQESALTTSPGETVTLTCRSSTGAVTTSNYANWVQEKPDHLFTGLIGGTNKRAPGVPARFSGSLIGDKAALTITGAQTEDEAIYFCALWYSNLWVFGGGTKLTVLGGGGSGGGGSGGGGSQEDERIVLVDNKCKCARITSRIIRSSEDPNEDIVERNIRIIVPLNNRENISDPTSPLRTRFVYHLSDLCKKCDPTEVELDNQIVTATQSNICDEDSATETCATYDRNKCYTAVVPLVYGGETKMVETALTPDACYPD
notes: Constant regions not specified; also called chimeric CD38 × CD3 IgM antibody of Clone B
For B1, the binding result in assay [1], in assay [2] and in assay [3] was “binds” in each case.

B2: IgM F-1 (bispecific antibody)
VH: EVQLQQSGAEFVRPGASVKLSCTASGFNIKDSLMHWVKQRPEQGLEWIGWIDPEDDKTKYAPKFQDEATLTADTSSNTAYLHLSSLTSEDTAIYYCARRFLRGFAYWGQGTLVTVSA
VL: DIVMTQSPSSLSVSAGEKVTMSCKSSQSLLNSGNQKNYLAWYQQKPGQPPKLLIYGASTRESGVPDRFTGSGSGTDFTLTISSVQAEDLAVYYCQNDHSYPYTFGGGTKLEIK
chain: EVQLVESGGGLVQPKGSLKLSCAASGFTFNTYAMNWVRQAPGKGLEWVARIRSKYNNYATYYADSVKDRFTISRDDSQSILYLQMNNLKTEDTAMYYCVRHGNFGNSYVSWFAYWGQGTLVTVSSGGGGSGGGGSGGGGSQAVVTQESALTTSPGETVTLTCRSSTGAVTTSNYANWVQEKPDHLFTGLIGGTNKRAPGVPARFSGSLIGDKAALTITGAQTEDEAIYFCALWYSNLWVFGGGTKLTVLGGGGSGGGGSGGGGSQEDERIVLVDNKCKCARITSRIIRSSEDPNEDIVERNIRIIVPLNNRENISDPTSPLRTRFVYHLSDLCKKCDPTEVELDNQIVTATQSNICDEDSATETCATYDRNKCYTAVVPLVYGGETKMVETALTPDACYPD
notes: Constant regions not specified; also called chimeric CD38 × CD3 IgM antibody of Clone F
For B2, the binding result in assay [1], in assay [2] and in assay [3] was “binds” in each case.

B3: IgM OKT10-2 (bispecific antibody)
VH: EVQLLESGGGLVQPGGSLRLSCAASGFDFSRSWMNWVRQAPGKGLEWVSEINPDSSTINYATSLKDRFTISRDNSKNTLYLQMNSLRAEDTAVYYCARYGNWFPYWGQGTLVTVSS
VL: DIQMTQSPSSLSASVGDRVTITCKASQNVDTNVAWYQQKPGKAPKALIYSASYRYSGVPSRFSGSGSGTDFTLTISSLQPEDFATYYCQQYDSYPLTFGQGTKVEIK
chain: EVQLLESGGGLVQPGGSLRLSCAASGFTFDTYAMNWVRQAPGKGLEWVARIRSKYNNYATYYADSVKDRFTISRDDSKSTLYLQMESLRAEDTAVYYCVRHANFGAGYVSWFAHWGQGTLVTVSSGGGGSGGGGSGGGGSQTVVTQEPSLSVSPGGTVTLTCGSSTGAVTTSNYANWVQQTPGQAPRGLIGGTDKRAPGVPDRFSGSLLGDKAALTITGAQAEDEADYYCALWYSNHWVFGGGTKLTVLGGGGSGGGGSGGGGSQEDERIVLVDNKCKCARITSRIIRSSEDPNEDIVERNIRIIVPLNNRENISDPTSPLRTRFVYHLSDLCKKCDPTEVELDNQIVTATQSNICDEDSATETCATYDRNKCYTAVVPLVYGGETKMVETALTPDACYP
notes: Constant regions not specified; also called humanized CD38 × CD3 IgM antibody
For B3, the binding result in assay [4] and in assay [5] was “no binding” in each case. Besides, in assay [6], the concentration for a half-maximal effect (EC50 (read off the curve)) was roughly 0.3 µg/mL.

B4: IgM OKT10-4 (bispecific antibody)
VH: B3 VH
VL: B3 VL
chain: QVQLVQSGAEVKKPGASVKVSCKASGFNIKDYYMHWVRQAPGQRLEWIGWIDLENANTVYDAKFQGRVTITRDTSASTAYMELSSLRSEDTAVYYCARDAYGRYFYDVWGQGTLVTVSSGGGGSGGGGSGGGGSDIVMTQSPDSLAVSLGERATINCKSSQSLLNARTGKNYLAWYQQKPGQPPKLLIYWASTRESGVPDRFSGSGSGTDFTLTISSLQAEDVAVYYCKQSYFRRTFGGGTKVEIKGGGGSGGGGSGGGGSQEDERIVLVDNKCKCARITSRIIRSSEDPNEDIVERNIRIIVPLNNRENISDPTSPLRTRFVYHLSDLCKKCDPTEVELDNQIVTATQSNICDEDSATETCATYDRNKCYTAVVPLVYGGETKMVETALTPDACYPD
notes: as for B3
Consider B4, for which the results for the binding result in assay [4], in assay [5] and in assay [6] were “no binding”, “no binding” and “binds”, respectively.

B5: Clone D (antibody, V domains shown)
VH: QIQLVQSGPELKKPGETVKISCKASGYTFTNYGMNWVKQAPGEDLKWMGWLNTNTGEPTYAEEFKGRFAFSLETSASTAYLQINNLRNEDTATYFCARWYYGSSDNSYAMDYWGQGTSVTVSS
VL: ETIVTQFPASLSMAIGEKVTIRCITSTDIDDDMNWYQQRPGEPPKLLISEGNTLRPGVPSRFSSSGYGTDFVFTFENMLSEDVADYYCLQSDSLPYTVGGGTRLEIK
notes: Murine hybridoma antibody tested as supernatant; also called anti-CD38 murine hybridoma clone D
B5: the binding result in assay [7] and in assay [8] was “binds” in each case.

B6: IgM H-1 (bispecific antibody)
VH: QVPLHQSGPELIKPGASLKISCKASDSAFNNSWMNWVRQRPGKGLEWIGWIYPGDDDTKYNGKFMGKATLTADKSSGTAYMQLSSLTSEDSAVYFCARGRWGMDYWGQGTSVTVSS
VL: DIVMTQFHNFMSTSVGDRVNINCKASQNVVTAVAWYQQKPGQSPKLLIYWASTRHTGVPDRFTGSGSGTDFTLTISNVQSEDLADYFCQQYSNYPFTFGSGTKLEIK
chain: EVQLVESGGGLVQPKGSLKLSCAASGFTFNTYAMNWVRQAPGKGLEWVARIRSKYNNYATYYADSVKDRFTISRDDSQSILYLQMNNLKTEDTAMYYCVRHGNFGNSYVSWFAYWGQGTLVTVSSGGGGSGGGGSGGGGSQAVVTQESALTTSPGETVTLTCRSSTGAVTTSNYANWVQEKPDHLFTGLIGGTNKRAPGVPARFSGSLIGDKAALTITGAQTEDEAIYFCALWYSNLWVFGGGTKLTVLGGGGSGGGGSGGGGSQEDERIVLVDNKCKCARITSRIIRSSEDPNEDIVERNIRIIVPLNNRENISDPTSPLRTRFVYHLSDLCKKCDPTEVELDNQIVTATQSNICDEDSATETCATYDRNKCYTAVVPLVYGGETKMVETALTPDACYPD
notes: Constant regions not specified; also called chimeric CD38 × CD3 IgM antibody of Clone H
With B6, the binding result in assay [1], in assay [2] and in assay [3] was “binds” throughout.

B7: IgM B-2 (bispecific antibody)
VH: QVQLVQSGAEVKKPGSSVKVSCKASGYTFTSYNMHWVRQAPGQGLEWMGYIYPGNGGTNYNQKFKGRVTITADESTSTAYMELSSLRSEDTAVYYCARGASMITTGAWFAYWGQGTLVTVSS
VL: DIQMTQSPSSVSASVGDRVTITCRASESLDTYGNSFMYWYQQKPGKAPKLLIYLASSLESGVPSRFSGSGSGTDFTLTISSLQPEDFATYYCHQNHEDPWTFGQGTKVEIK
chain: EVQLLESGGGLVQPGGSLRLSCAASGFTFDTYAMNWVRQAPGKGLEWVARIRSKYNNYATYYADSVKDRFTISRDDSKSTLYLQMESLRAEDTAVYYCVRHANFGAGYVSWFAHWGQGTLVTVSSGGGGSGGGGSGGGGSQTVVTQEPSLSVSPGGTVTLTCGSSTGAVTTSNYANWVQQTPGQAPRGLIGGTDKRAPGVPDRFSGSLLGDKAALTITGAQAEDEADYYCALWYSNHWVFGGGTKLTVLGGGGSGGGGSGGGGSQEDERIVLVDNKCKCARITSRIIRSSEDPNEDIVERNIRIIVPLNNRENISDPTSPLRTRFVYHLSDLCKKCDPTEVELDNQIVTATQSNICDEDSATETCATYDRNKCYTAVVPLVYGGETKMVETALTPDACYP
notes: IgM and light chain constant regions not specified; also called humanized CD38 × CD3 IgM antibody
As for B7, the binding result in assay [4] is on record as “no binding”; in assay [5], “no binding”; in assay [6] it was “binds”.

B8: IgM B-4 (bispecific antibody)
VH: B7 VH
VL: B7 VL
chain: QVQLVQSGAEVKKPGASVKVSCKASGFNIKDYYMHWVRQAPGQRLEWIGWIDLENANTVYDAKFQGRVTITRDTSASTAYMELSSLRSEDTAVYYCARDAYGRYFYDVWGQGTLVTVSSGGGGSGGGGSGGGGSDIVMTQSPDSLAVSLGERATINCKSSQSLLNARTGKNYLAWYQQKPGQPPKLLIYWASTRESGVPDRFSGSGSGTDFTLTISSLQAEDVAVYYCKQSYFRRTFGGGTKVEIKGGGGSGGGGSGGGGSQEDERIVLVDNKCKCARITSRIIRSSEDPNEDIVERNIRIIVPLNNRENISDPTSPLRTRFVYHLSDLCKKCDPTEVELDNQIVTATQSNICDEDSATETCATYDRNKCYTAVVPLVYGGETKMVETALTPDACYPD
notes: as for B3
Consider B8, for which the binding result in assay [4] is recorded as “no binding”; in assay [5], “no binding”; in assay [6], “binds”.

B9: IgM C-1 (bispecific antibody)
VH: EVQLQQSGTVLARPGASVKMSCKASGYTFTRYWMHWVKQRPGQDLEWIGGFYPGNSDTRYNQKFKDKAKLTAVTSTSTAYMELSSLTNEDSAVYYCTRGDRHDEGFAYWGQGTLVTVSA
VL: DIQMTQSPASLSASVGETVTITCRASGNIHNYLAWYQQKQGKSPQLLVYNAKTLPDGVPSRFSGSGSGTQYSLKINSLQPEDFGTYYCQNIWTNYTFGGGTKLEIK
chain: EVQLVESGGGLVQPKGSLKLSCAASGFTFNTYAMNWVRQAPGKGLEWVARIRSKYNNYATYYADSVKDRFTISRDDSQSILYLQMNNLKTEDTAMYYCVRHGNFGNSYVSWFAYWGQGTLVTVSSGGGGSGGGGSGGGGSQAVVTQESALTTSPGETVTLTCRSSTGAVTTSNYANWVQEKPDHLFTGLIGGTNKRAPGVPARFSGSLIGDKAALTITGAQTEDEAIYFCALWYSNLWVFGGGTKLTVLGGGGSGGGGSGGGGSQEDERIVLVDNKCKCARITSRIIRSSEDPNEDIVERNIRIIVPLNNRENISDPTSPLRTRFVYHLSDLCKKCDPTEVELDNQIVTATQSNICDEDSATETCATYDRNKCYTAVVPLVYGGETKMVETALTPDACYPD
notes: Constant regions not specified; also called chimeric CD38 × CD3 IgM antibody of Clone C
For the molecule B9, the binding result in assay [1], in assay [2] and in assay [3] was “binds” in each case.

B10: IgM E-1 (bispecific antibody)
VH: QVQLQQSGAELVRPGTSVKMSCKAAGYTFTNHWIEWVKQRPGHGLEWIGDIFPGGGYTDYNEKFKGKATLTADTSSSTAYMQLSSLTSEDSAIYYCARGRDLAMDYWGQGTSVTVSS
VL: DIQMNQSPSSLSASLGDTITITCHASQNINVWLGWYQQKPGNIPKLLIYKASNLHTGVPSRFSGSGSGTGFTLTISSLQPEDIATYYCQQGQSYPYTFGGGTKLEIK
chain: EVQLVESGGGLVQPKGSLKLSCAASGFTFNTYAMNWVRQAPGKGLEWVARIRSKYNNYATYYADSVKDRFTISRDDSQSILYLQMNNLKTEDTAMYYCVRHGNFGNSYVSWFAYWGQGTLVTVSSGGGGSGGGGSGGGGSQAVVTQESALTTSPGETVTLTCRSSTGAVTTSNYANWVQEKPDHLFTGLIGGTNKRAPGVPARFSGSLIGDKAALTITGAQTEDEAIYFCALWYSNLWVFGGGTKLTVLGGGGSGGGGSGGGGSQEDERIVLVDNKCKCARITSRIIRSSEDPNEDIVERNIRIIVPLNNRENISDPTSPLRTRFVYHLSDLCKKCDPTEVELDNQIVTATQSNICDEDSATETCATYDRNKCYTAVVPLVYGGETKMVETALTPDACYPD
notes: Constant regions not specified; also called chimeric CD38 × CD3 IgM antibody of Clone E
On to B10, for which the binding result in assay [1], in assay [2] and in assay [3] was “binds” throughout.

B11: IgM E-4 (bispecific antibody)
VH: QVQLVQSGAEVKKPGSSVKVSCKASGYTFTNHWIEWVRQAPGQGLEWMGDIFPGGGYTDYNEKFKGRVTITADESTSTAYMELSSLRSEDTAVYYCARGRDLAMDYWGQGTLVTVSS
VL: B10 VL with N5T, L15V, T18R, I19V, N42K, I43A, G70D, I83F, G100Q, L104V
chain: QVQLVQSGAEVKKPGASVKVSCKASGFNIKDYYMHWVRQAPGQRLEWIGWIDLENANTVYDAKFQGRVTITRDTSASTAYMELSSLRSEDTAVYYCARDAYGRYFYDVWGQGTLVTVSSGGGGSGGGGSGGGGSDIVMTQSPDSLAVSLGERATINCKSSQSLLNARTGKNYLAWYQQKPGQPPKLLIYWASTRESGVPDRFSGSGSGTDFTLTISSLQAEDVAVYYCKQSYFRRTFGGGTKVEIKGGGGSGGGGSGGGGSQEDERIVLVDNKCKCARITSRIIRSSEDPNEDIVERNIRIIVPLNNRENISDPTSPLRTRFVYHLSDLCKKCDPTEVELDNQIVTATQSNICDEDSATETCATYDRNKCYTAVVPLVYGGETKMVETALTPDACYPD
notes: as for B3
Turning to B11, the binding result is listed as “no binding” in assay [4], “no binding” in assay [5] and “binds” in assay [6].

B12: IgM A-1 (bispecific antibody)
VH: QVQLQQSGAELVKPGASVKISCKASGYTFSNYWIEWVKQRPGLGLEWIGDILPGSGTTNYNEKFKGKATFTADTSSNTAYMQLSSLTSEDSAVYYCAGYGNYLWFTYWGQGTLVTVSA
VL: B10 VL with G34S
chain: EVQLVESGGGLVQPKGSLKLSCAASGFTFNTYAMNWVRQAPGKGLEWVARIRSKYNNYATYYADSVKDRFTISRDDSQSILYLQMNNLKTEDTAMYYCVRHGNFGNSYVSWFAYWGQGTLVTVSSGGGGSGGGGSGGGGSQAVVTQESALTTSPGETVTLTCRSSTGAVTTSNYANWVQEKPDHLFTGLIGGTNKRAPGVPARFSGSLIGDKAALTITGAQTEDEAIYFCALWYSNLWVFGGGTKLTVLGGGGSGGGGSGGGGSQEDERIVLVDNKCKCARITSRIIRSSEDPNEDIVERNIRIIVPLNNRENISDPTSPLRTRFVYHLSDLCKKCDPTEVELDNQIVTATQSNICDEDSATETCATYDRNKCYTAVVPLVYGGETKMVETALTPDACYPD
notes: The IgM heavy chain constant region and the light chain constant region used are not specified; also called chimeric CD38 × CD3 IgM antibody of Clone A
On to B12, for which the “EC50 (read off the curve)” value in assay [1] was roughly 0.2 µg/mL; in assay [2], roughly 0.2 µg/mL; in assay [3], roughly 2 nM.

B13: IgM E-2 (bispecific antibody)
VH: B11 VH
VL: B10 VL with N5T, L15V, T18R, I19V, N42K, I43A, G70D, I83F, G100Q, L104V
chain: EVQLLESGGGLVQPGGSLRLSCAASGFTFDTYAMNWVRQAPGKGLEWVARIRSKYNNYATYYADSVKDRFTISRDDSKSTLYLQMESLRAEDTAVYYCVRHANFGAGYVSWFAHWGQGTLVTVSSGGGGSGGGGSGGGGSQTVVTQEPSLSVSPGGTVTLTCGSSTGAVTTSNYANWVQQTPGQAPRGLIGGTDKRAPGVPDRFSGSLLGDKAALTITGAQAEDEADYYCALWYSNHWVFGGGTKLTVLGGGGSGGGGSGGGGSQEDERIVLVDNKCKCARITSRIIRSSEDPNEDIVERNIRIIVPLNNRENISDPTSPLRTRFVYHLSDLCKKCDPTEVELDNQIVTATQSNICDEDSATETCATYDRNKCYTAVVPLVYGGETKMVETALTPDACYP
notes: as for B3
Turning to B13, the binding result is listed as “no binding” in assay [4], “no binding” in assay [5] and “binds” in assay [6].
